± gives the uncertainty stated by the source.
Assay: protein stability index of a GFP-peptide fusion (yeast GPS) (PSI 1-4); higher = more stable; sorted into four equal gates, so the index is relative within each strain
In short: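 Plasmids in a pooled yeast library fused tiled 17-residue yeast protein peptides downstream of GFP and also expressed Cherry. Mid-log cultures grown without leucine were sorted into four equal gates by GFP/Cherry fluorescence ratio. Each gate's plasmids were PCR-amplified and Illumina-sequenced, and reads were matched to strains by barcodes. The protein stability index is derived by multiplying each gate's read frequency by its gate number and summing the results.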

Sequence | protein stability index (doa10∆) | protein stability index (pdr5∆) | protein stability index (san1∆) | protein stability index (ubr1∆)
KNDEVLGLLLPIAASTD [RPN1] | 2.02 ± 0.055 | 2.3 ± 0.062 | 2.47 ± 0.063 | 2.6 ± 0.071
TNENGETDDNIETVMTQ [SRB4] | 2.79 ± 0.099 | 2.53 ± 0.076 | 2.44 ± 0.089 | 2.5 ± 0.074
NSVRNSLLLAHFFSKSC [NUT1] | 1.74 ± 0.05 | 1.28 ± 0.041 | 1.19 ± 0.078 | 1.18 ± 0.035
KSTPEGTLWAHVLKTVD [SNU114] | 2.1 ± 0.058 | 1.93 ± 0.048 | 2.43 ± 0.072 | 2.27 ± 0.038
MEADPSLHPLFEQFEKF [RPN9] | 2.82 ± 0.073 | 2.84 ± 0.061 | 2.39 ± 0.1 | 2.55 ± 0.05
EALVQAFAFCIPVYCFS [YCG1] | 1.68 ± 0.071 | 1.83 ± 0.056 | 1.73 ± 0.16 | 1.51 ± 0.064
VSKMEKAEKTLKSTKHS [SMC4] | 2.69 ± 0.052 | 2.42 ± 0.044 | 2.33 ± 0.042 | 2.83 ± 0.031
QGTNSVPNSIGNIFSNI [SNF5] | 2.91 ± 0.068 | 3.12 ± 0.095 | 3.15 ± 0.12 | 2.98 ± 0.052
PLDDAGTIGWDLGITEK [MCD1] | – | – | – | 3.05 ± 0.16
DQIAVCEISGSIEQLRN [BRN1] | 3.27 ± 0.16 | 3.26 ± 0.19 | 3.11 ± 0.19 | –
GGAKSRGVRPYKHIDAS [RPS19A] | 3.12 ± 0.11 | 3.38 ± 0.14 | 2.93 ± 0.082 | 2.98 ± 0.12
RHGSVVEASRRRRSSTN [MED1] | 3.19 ± 0.073 | 3.41 ± 0.078 | 3.26 ± 0.045 | 3.3 ± 0.044
TCDEIQNFENDFSLRYI [REC8] | 2.52 ± 0.14 | 2.12 ± 0.28 | 3.35 ± 0.15 | 2.88 ± 0.28
RETDPLVYNMTSFEQGE [RPT4] | 3.09 ± 0.12 | 2.49 ± 0.11 | 3.23 ± 0.18 | 2.7 ± 0.068
NMMNQVGEEETSQKMKK [SRP54] | 3.33 ± 0.11 | 3.39 ± 0.12 | 3.33 ± 0.076 | 3.23 ± 0.079
GAVSLNPSITRLEEESS [RRP4] | 3 ± 0.2 | 3.03 ± 0.14 | 3.07 ± 0.1 | 2.35 ± 0.08
REKRDRTHFKRMRFPPF [PRP8] | 2.27 ± 0.05 | 2.64 ± 0.069 | 2.22 ± 0.098 | 2.2 ± 0.047
MPLKILLATKQHDSSAN [CSN12] | 2.48 ± 0.076 | 1.97 ± 0.044 | 2.09 ± 0.063 | 2.27 ± 0.044
TKRVEKPQLKFKSPIDN [RRP6] | 2.88 ± 0.052 | 3.03 ± 0.061 | 3.02 ± 0.039 | 3.137 ± 0.03
RGKNEIIQNAQRDAVTL [RPO21] | 3.3 ± 0.067 | 2.99 ± 0.078 | 3.23 ± 0.064 | 3.04 ± 0.066
CDGDTVWDKFAVNLLNC [SSN2] | 3.29 ± 0.1 | 3.3 ± 0.098 | 3.14 ± 0.07 | 3.11 ± 0.1
LDDQIFVCEKSIEFAKR [RPN6] | – | – | – | 1.27 ± 0.16
IRKFFGLSKEDDVRDFV [RPS6A] | 3.43 ± 0.1 | 3.35 ± 0.098 | 3.38 ± 0.12 | 3.32 ± 0.098
LYKTFFKRNAVFVGTIF [QCR9] | 1.78 ± 0.075 | 1.36 ± 0.051 | 1.39 ± 0.098 | 1.36 ± 0.054
TPSTEESRAQNVFGQDN [SWI3] | 2.58 ± 0.092 | 2.77 ± 0.093 | 3.35 ± 0.054 | 2.55 ± 0.048
NPHDTLNRIKKYLLTQR [PRP8] | 2.22 ± 0.095 | 2.14 ± 0.08 | 2.25 ± 0.11 | 2.27 ± 0.15
LQETLNKSTSSEAEYSK [YIL149C/MLP2] | 3.11 ± 0.08 | 2.9 ± 0.081 | 3.27 ± 0.062 | 3.28 ± 0.068
EIELKKLPKVYKRSIVR [SWI1] | 2.11 ± 0.069 | 1.86 ± 0.071 | 2.68 ± 0.099 | 2.91 ± 0.074

Sequence | protein stability index (doa10∆) | protein stability index (pdr5∆) | protein stability index (san1∆) | protein stability index (ubr1∆)
IDRNSTILYLNVFHGLC [IRR1] | 2.41 ± 0.14 | 1.52 ± 0.084 | 2.14 ± 0.25 | 2.78 ± 0.17
YSTLKELLEYSDDIAEN [YCG1] | 2.81 ± 0.048 | 2.84 ± 0.053 | 2.74 ± 0.053 | 2.59 ± 0.04
MGRMHSAGKGISSSAIP [RPS13] | 2.74 ± 0.043 | 2.61 ± 0.068 | 3.11 ± 0.048 | 2.88 ± 0.041
GNKALEDEEEFSIFNYF [RPC34] | 3.21 ± 0.13 | 3.37 ± 0.14 | – | –
DEGLLNMVSLRGRNDTL [GRR1] | 2.55 ± 0.15 | 2.49 ± 0.14 | 2.51 ± 0.097 | 2.83 ± 0.17
NGDKKVDIYSLPLISTD [YMR129W/POM152] | 2.88 ± 0.076 | 2.76 ± 0.056 | 2.88 ± 0.034 | 3.03 ± 0.051
DNDTVVTNDDKSDDDDH [SRB8] | – | 2.88 ± 0.15 | 3.24 ± 0.26 | 3.19 ± 0.11
AALDLSHTQNIGHLIKT [SMC2] | 2.88 ± 0.083 | 2.47 ± 0.063 | 2.27 ± 0.087 | 2.72 ± 0.046
NLLQISAAELERLDKDK [SNF5] | 2.5 ± 0.12 | 2.89 ± 0.13 | 2.91 ± 0.18 | –
LDEVDAALDITNVQRIA [SMC1] | 3.16 ± 0.096 | 3.06 ± 0.098 | 3.14 ± 0.1 | 3.16 ± 0.087
GDKDTRADIVRNIILEA [ISW2] | 2.1 ± 0.1 | 2.41 ± 0.06 | 2.09 ± 0.099 | 2.56 ± 0.11
DKVSSCFPQYVNSKQGA [NNF1] | 2.07 ± 0.088 | 2.23 ± 0.091 | 2.11 ± 0.12 | 2.95 ± 0.092
FMRNGLLEGLNEKIEKR [UBP6] | 2.99 ± 0.29 | 2.87 ± 0.18 | 3.21 ± 0.26 | 3.55 ± 0.23
LSVEIGVLTDISSLIGG [NUT1] | 1.32 ± 0.13 | 1.95 ± 0.11 | 1.89 ± 0.25 | 2.18 ± 0.12
QNLRKELLIYKKSQCKK [YIL149C/MLP2] | 1.75 ± 0.078 | 2.35 ± 0.086 | 1.84 ± 0.086 | 1.63 ± 0.068
DTIDNVKSKIQDKEGIP [RPS31] | 3.22 ± 0.098 | 3.46 ± 0.089 | 3.38 ± 0.05 | 3.57 ± 0.075
KQRLDLARQVKLLLLNT [YIL149C/MLP2] | 2.56 ± 0.059 | 2.15 ± 0.058 | 1.98 ± 0.092 | 1.88 ± 0.034
SKMYNTDKKAFLGALKY [PRP8] | 2.52 ± 0.092 | 2.27 ± 0.071 | 2.47 ± 0.1 | 2.63 ± 0.11
ELKDICSFAVTKSSLND [YML103C/NUP188] | 2.87 ± 0.072 | 2.96 ± 0.065 | 2.89 ± 0.072 | 3.02 ± 0.05
MALKKNTHNKSTKRVTK [POP7] | 2.71 ± 0.1 | 2.73 ± 0.11 | 2.82 ± 0.053 | 2.84 ± 0.06
GGGHVSQVYAIRQAIAK [RPS16A] | 2.63 ± 0.05 | 2.85 ± 0.045 | 2.75 ± 0.053 | 2.62 ± 0.043
MQNSKVESVCQKLDILV [SMC4] | 2.26 ± 0.065 | 2.13 ± 0.059 | 2.3 ± 0.088 | 1.87 ± 0.056
HSNRCIVFSKKEPFPHS [CSN12] | 2.49 ± 0.043 | 2.85 ± 0.047 | 2.8 ± 0.058 | 2.69 ± 0.037
APRQEISEEETTVKPLF [YAR002W/NUP60] | 3.22 ± 0.11 | 3.22 ± 0.11 | 3.23 ± 0.067 | 3.56 ± 0.17
GLRNQNMVRNNNNNTID [GRR1] | 2.75 ± 0.063 | 2.86 ± 0.071 | 2.83 ± 0.057 | 2.96 ± 0.038
KPSLVDVHLLESKVYHK [RPN6] | 1.74 ± 0.045 | 1.9 ± 0.053 | 1.77 ± 0.086 | 2.05 ± 0.061
GRTGNGNMGITTEMLDK [MED6] | 3.23 ± 0.069 | 3.23 ± 0.062 | 3.28 ± 0.047 | 3.27 ± 0.04

— the supplement of paper PMC9732359
